Here are results for one substance from patent US8119117.

The experiment addresses CD40 receptor on dendritic cells (mouse) (UniProt P27512). In words: cell-based or functional assay.
Chain of UniProt P27512 (P27512 20-289): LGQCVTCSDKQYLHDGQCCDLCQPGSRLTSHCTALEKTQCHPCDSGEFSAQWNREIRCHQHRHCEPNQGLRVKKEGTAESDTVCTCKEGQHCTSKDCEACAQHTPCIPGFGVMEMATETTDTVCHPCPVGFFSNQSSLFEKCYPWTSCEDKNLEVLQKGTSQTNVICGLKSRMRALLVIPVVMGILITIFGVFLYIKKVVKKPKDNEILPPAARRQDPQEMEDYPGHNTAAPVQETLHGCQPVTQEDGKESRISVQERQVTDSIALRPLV

Consider “E7-ΔCtΔTmCD40L fusion protein (secreted; HPV type 16 E7, 10 amino acid linker, murine CD40 ligand residues 52-260) (from UniProt P03129 1-98; P27548 52-260)”, for which the IFN-γ released by DCs exposed to the vector (ELISA), first 24 hours was 335 pg; the IL-12 produced by DCs exposed to the vector (ELISA), 24 h (pg/2×10^5 cell/ml/24 h) was 18; the IL-12 produced by DCs exposed to the vector (ELISA), 48 h (pg/2×10^5 cell/ml/48 h) is 88.
